Results taken from publication PMC2916698 (Journal of cellular physiology, 2010).

Assays:
Assay in all cases: two-hybrid
[1] = target: Gal4-SRC-1 (Steroid Receptor Coactivator-1) (UniProt Q15788 1-1441)
[2] = target: T1, Gal4-mouse RXRα ligand binding domain (LBD) (mouse, UniProt P28700 232-467)
T1 sequence (looked up): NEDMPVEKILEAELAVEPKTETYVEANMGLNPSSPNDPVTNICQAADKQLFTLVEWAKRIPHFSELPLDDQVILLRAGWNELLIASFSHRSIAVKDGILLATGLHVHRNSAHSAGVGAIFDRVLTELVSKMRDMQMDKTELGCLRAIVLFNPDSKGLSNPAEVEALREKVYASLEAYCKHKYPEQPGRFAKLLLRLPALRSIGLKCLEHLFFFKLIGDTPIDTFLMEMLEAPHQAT

[3] = target: T2, Gal4-RXRα AF-1 (first 135 amino acids of human RXRα) (human, UniProt P19793 1-135)
T2 sequence (looked up): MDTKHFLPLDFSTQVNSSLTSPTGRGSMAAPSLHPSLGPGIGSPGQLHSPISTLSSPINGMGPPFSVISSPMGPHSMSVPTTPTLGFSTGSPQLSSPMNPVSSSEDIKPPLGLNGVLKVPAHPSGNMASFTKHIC

Chain of Gal4-SRC-1 (Steroid Receptor Coactivator-1) (Q15788 whole entry, the tested form may be a part): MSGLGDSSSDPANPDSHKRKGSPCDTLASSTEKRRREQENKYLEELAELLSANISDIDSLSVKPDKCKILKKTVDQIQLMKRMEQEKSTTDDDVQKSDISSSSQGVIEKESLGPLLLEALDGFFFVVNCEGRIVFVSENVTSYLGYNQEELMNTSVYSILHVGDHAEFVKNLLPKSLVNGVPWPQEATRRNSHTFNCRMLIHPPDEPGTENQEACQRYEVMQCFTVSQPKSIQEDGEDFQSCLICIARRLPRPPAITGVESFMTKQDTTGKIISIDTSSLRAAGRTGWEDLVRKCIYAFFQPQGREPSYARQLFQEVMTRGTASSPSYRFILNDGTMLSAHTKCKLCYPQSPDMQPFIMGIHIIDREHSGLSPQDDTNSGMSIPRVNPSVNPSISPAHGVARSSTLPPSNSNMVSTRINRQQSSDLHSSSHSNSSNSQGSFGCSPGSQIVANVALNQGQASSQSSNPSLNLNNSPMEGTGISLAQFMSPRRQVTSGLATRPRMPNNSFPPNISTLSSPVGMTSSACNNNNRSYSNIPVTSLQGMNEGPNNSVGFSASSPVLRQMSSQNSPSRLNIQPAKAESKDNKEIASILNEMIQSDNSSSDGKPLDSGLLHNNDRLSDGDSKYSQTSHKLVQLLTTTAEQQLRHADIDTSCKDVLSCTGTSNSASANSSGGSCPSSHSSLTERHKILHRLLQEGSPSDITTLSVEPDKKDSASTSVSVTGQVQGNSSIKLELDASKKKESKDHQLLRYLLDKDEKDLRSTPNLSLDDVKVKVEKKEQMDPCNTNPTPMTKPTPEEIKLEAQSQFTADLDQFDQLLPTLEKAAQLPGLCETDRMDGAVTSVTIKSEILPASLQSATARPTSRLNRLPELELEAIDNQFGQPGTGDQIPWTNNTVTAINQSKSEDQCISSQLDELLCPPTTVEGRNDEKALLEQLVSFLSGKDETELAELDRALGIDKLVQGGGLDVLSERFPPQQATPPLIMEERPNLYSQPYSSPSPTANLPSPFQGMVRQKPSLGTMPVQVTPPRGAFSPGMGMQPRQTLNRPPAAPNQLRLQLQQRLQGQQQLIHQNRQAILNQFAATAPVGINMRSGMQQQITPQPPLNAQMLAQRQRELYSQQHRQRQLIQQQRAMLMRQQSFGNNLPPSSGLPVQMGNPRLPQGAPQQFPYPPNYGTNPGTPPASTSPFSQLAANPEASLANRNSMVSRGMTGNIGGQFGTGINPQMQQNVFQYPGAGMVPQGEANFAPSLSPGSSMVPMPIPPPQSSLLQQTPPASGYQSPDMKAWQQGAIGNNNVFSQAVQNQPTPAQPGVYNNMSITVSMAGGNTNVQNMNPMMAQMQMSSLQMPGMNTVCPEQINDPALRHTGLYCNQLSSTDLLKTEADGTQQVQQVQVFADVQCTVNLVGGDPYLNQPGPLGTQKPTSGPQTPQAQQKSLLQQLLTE

B1: VP16-rat VDR-LBD (domain or fragment, UniProt P13053 127-423, looked up)
chain: EQQHIIAILLDAHHKTYDPTYADFRDFRPPVRMDGSTGSYSPRPTLSFSGNSSSSSSDLYTTSLDMMEPSGFSNLDLNGEDSDDPSVTLDLSPLSMLPHLADLVSYSIQKVIGFAKMIPGFRDLTSDDQIVLLKSSAIEVIMLRSNQSFTMDDMSWDCGSQDYKYDVTDVSKAGHTLELIEPLIKFQVGLKKLNLHEEEHVLLMAICIVSPDRPGVQDAKLVEAIQDRLSNTLQTYIRCRHPPPGSHQLYAKMIQKLADLRSLNEEHSKQYRSLSFQPENSMKLTPLVLEVFGNEIS
For B1, the “fold induction of the two-hybrid signal by 1,25(OH)2D3, RWPE2 cells” value [1] was 10.4 fold, the “fold induction of the two-hybrid signal by 1,25(OH)2D3, RWPE1 cells” value [2] was 111 fold and the “fold induction of the two-hybrid signal by 1,25(OH)2D3, RWPE2 cells” value [2] was 178 fold.

B2: VP16-mouse RXRα-LBD (domain or fragment, UniProt P28700 232-467, looked up)
chain: NEDMPVEKILEAELAVEPKTETYVEANMGLNPSSPNDPVTNICQAADKQLFTLVEWAKRIPHFSELPLDDQVILLRAGWNELLIASFSHRSIAVKDGILLATGLHVHRNSAHSAGVGAIFDRVLTELVSKMRDMQMDKTELGCLRAIVLFNPDSKGLSNPAEVEALREKVYASLEAYCKHKYPEQPGRFAKLLLRLPALRSIGLKCLEHLFFFKLIGDTPIDTFLMEMLEAPHQAT
In the case of B2, the “fold induction of the two-hybrid signal by 1,25(OH)2D3, RWPE1 cells” value [1] is reported as 2.6 fold.

B3: VP16-SRC-1 (natural protein)
chain: not shown
B3 was tested, and the “two-hybrid signal above the empty GAL4 vector control, RWPE1 cells” value [3] was 8.2 fold.
